Measured values reported in patent US20140349310A1 (Eli Lilly, published 2014).

B1: anti-c-Met therapeutic antibody C8-H241 (human IgG4 subtype) (antibody, V domains shown)
VH: QVQLVQSGAEVKKPGASVKVSCKASGYTFTDYYMHWVRQAPGQGLEWMGRVNPNRRGTTYNQKFEGRVTMTTDTSTSTAYMELRSLRSDDTAVYYCARANWLDYWGQGTTVTVSS
VL: DIQMTQSPSSLSASVGDRVTITCSVSSSVSSIYLHWYQQKPGKAPKLLIYSTSNLASGVPSRFSGSGSGTDFTLTISSLQPEDFATYYCQVYSGYPLTFGGGTKVEIKR
notes: also called mAb C8-H241

Columns and labels:
[1] = biological target: B1; assay: ELISA control: 2 µg/mL C8-H241 (human IgG4 subtype) coated, no cMet ECD, 0.5 µg/mL biotinylated OptD11 detection
[2] = biological target: T1, cynomolgus monkey c-Met ECD expressed as Fc fusion protein with a flag- and His-tag (Flis-tag) at the … (cynomolgus monkey); assay: SPR (Biacore): antibody captured by goat anti-mouse Fc, c-Met ECD-Fc-Flis as analyte, 25 C, 1:1 Langmuir model
T1 construct: also called cynomolgus monkey c-Met-Flis-Fc ECD
Protocol: (§1) Briefly described, the anti-c-Met monoclonal antibody of the invention may be dissolved in HBS-EP buffer (150 mM sodium chloride, 3 mM EDTA, 0.005% (w/v) surfactant P-20, and 10 mM N-2-hydroxyethylpiperazine-N′-2-ethanesulfonic acid (HEPES) at pH 7.4; #BR-1001-88). Goat anti-mouse Fc antibody is immobilized on flow cells 1 to 4 of a CM5 sensor chip at a level of 4000 response units (RUs) using amine coupling chemistry to capture anti-c-Met antibodies.
(§2) Binding may be evaluated using multiple analytical cycles. Each cycle is performed at a flow rate of 50 μl/minute, and may consist of the following steps: injection of about 10 μl of an anti-c-Met monoclonal antibody at 10 μg/ml aiming at a capture of 40-100 RUs, injection of 250 μl of human or cynomolgus monkey c-Met-Flis-Fc ECD (starting at 100 nM and using two-fold serial dilutions for each cycle) followed by 20 minutes for dissociation, and regeneration using about 30 μl of 10 mM glycine hydrochloride, pH 1.5. Association and dissociation rates for each cycle may be evaluated using a “1:1 (Langmuir) binding” model in the BIAevaluation software 4.1.

[3] = biological target: T2, human c-Met ECD expressed as Fc fusion protein with a flag- and His-tag (Flis-tag) at the C-terminus of the Fc (human); assay: as above
T2 construct: also called human c-Met-ECD-Fc-Flis; c-Met-ECD-Fc-Flis
Protocol: as §1, §2

[4] = biological target: T2, human c-Met ECD expressed as Fc fusion …; assay: SPR (BIAcore): antibody injected over c-Met-ECD-Fc-Flis captured at 130 Ru; the sequential experiment also includes C8-H241
[5] = biological target: T2, human c-Met ECD expressed as Fc fusion …; assay: SPR (BIAcore): antibody injected over c-Met-ECD-Fc-Flis captured at 130 Ru

T1 sequence (chain, as listed by the source limits assumed): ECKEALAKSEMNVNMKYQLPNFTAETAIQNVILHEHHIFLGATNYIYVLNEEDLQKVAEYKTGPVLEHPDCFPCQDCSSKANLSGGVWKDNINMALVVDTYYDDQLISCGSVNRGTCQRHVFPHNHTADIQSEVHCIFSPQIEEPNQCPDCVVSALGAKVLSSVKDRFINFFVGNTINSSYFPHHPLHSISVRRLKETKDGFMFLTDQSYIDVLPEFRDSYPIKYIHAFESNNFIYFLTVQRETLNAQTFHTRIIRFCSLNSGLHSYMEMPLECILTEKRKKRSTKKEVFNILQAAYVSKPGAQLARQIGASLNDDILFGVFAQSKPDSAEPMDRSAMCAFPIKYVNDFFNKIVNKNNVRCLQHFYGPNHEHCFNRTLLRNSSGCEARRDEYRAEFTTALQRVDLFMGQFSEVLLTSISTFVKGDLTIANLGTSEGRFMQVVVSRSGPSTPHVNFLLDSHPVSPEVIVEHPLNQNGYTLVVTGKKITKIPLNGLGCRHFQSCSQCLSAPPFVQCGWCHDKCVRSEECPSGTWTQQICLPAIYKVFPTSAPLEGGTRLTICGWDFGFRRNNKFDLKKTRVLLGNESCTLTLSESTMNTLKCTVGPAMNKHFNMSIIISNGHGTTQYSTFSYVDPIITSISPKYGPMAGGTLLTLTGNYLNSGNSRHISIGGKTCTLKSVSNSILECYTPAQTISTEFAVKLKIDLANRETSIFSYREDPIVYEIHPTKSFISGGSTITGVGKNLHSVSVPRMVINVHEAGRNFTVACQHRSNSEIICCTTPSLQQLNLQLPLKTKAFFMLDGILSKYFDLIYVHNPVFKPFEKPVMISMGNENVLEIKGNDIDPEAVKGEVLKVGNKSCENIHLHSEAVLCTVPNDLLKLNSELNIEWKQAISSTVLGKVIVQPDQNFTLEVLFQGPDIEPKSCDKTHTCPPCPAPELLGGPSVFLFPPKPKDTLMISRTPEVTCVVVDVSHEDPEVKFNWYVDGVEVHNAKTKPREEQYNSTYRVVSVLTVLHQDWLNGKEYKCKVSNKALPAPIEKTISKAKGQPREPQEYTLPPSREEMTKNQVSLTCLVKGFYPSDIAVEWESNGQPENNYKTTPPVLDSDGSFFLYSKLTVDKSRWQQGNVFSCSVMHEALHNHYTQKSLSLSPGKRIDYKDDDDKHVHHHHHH
T2 sequence (chain, as listed by the source): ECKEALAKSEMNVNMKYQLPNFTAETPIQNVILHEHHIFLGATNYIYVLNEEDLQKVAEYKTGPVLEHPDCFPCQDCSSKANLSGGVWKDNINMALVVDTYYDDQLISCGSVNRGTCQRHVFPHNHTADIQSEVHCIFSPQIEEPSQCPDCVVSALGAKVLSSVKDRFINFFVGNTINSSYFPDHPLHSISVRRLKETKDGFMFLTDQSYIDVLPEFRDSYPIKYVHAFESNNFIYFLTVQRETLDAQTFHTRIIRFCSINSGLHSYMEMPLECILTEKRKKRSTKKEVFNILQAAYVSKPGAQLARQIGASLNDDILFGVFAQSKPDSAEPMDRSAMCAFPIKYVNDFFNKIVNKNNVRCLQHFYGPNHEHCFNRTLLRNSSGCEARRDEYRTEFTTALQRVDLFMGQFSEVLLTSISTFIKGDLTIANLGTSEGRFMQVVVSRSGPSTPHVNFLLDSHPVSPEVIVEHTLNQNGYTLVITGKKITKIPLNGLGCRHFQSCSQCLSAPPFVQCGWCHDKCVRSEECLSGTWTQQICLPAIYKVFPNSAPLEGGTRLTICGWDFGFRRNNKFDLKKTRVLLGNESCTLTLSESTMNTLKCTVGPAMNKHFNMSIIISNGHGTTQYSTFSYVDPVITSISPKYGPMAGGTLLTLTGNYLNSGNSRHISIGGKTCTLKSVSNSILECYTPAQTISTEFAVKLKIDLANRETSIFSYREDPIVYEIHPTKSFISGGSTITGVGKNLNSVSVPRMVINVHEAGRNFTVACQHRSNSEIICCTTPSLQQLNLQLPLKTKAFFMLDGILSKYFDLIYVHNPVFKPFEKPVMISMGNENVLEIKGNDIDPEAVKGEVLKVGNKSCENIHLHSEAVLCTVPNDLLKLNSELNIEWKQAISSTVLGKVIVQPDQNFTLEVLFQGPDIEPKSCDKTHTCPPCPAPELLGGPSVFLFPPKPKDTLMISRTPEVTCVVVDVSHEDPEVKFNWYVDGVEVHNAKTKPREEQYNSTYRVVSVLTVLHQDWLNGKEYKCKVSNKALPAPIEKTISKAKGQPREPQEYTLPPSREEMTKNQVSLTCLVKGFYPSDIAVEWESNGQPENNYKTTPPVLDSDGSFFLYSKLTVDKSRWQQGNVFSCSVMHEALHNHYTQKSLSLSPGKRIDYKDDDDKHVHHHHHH

| binding result [1] | Kd [2] [nM] | koff [2] [s⁻¹] | kon [2] [M⁻¹ s⁻¹] | Kd [3] [nM] | koff [3] [s⁻¹] | kon [3] [M⁻¹ s⁻¹] | Stoichiometry (mAb to cMet-Fc) [4] | Stoichiometry (mAb to cMet-Fc) [5] | Binder |
| --- | --- | --- | --- | --- | --- | --- | --- | --- | --- |
| no binding (tested: 0.5 µg/mL) | 0.35 | 4.7e-05 | 130000 | 0.12 | 9e-06 | 160000 | 0.89 |  | anti-c-Met monoclonal antibody OptD11 (mouse IgG1 subtype) (antibody, V domains shown, Murine IgG1; also called mAb OptD11; OptD11 c-Met antibody) VH: EVQLQQSGPELVKPGASVRISCKASGYTFTSRYIHWMKQRPGQGLEWIGWIYPVTGDTYYNEKFKGKATLTSDKSSSTAYMQISSLTSDDSAVYFCARGGGMFYYWGQGTLVTVSA VL: ETTVTQSPALMAASPGEKVTITCSVSSSISSTNLHWYQQKSETSPKPWIYGTSNLASGVPVRFGGSGSGTSYSLTISSMEAEDAATYYCQQWSSYPYTFGGGTKLEIKR |
|  |  |  |  |  |  |  |  | 0.91 | B1 |
